This note sets out measurements from patent publication US20200115433A1.

The experiment concerns the target …-HLA-A2 complex (human). Put plainly: SPR BIAcore T200, single-cycle kinetics, pMHC on chip. (In general: In SPR one partner is held on a chip, and binding of the other changes the refractive index at the surface.)

B1: single chain TCR s-10 (TCR)
chain: SQQGEEDPQALSIQEGENVTINCSYKGWAQNRQNSGRGLVHLILIRSNEREKHSGRLRVTLDTSKKSSSLEITAVRPADTASYFCATDANARWDFGKGTRLHILPGGGSEGGGSEGGGSEGGGSEGGTGDAGVTQSPRHESVEMGQEVTLRCKPISGHDYLFWYRQTPKRGLELLIYFNHGAVIDDSGMPEDRFSAKMPNASFSTLKIQPVEPRDSAVYFCASQLGSNEQYFGPGTRLTVT
With B1, the Kd – broadly, a measure of binding affinity in units of concentration – is 0.425 nM. This lies in the sub-nanomolar range.
